Columns and labels:
[1] = system: GST-2E11 recombinant protein (fusion between a KCNQ2-15b polypeptide comprising exons 13, 14 and 15b and GST)
[2] = system: GST protein (negative control, from pGEX2TK) [GST: P08515]
Sequence of GST protein (negative control, from pGEX2TK) [GST: P08515] (P08515 whole entry): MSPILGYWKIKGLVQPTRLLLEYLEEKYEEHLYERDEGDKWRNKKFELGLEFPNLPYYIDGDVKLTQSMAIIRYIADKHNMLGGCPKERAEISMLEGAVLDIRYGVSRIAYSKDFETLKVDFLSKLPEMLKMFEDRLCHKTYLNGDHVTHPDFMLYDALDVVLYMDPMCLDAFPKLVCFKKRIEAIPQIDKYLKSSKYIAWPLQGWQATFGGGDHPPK

Sequence of GST-2E11 recombinant protein (fusion between a KCNQ2-15b polypeptide comprising exons 13, 14 and 15b and GST) (chain, as listed by the source): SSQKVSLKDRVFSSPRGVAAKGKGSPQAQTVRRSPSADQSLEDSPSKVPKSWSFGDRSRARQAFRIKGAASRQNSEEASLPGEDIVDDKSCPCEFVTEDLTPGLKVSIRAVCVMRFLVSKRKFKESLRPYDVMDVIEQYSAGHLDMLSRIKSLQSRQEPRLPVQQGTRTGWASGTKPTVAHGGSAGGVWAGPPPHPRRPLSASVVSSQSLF

Substance	in vitro phosphorylation, 32P autoradiography after SDS-PAGE [1]	in vitro phosphorylation, 32P autoradiography after SDS-PAGE [2]	in vitro dephosphorylation, loss of the 32P band, with or without okadaic acid [1]
recombinant GSK-3β kinase (New England Biolabs)	Thus the GST-2E11 protein is phosphorylated by GSK-3β and PKA in vitro	No bands appeared in the three lines corresponding to the negative controls	–
PP2A phosphatase in whole cell extracts of the human glioblastoma, astrocytoma cell line HTB-14	–	–	In the line loaded with GST-2E11 fusion proteins incubated in the presence of HTB-14 cell extracts, the band had an extremely weaker intensity
Protein Kinase A Catalytic Subunit (PKA from bovine heart, Sigma)	Thus the GST-2E11 protein is phosphorylated by GSK-3β and PKA in vitro	No bands appeared in the three lines corresponding to the negative controls	–

From patent publication US20040203128
